This is an account of results in PMC7072583, “Intracellular Delivery of DNA and Protein by a Novel Cell-Permeable Peptide Derived from DOT1L” (Biomolecules, 2020).

The test system of data set [1] is MCF7 cells. It counts as cell-based, human. As to the method:
(§1) All types of cells were suspended in 0.5 mL media and seeded at a density of 1.5 × 10^5 cells/well on a 24-well plate for 24 h. After washing with PBS twice, the indicated cells were incubated with indicated concentrations of FITC-CPP-Dot1l, FITC-NCO peptides, or purified protein in 0.5 mL serum-free media/well for 1 h. After incubation, cells were rinsed three times in PBS and then imaged by fluorescence microscopy (Nikon, Tokyo, Japan). To evaluate the cellular uptake efficiency of indicated treatment, the cellular uptake of indicated concentration of CPP was quantified with multimode spectrophotometry (Tecan, Mannedorf, Switzerland). The incubation and wash procedure were the same as above. Cells were then lysed with 0.3 mL/well lysing buffer (0.1 M NaOH) for 10 min and centrifuged at 14,000 rpm for 5 min. The fluorescence intensity in the supernatant was read using Multimode spectrophotometry (Tecan, Mannedorf, Switzerland) at 485 nm excitation and emission at 535 nm. Protein concentration of supernatant was examined by the Bradford protein assay kit following the manufacturer’s recommendation. The fluorescence of cellular uptake is expressed as fluorescence intensity per mg of total cellular protein. Experiments indicated in the text were repeated at least three times.

The subject of data set [2] is MCF7, B16, HSC-T6, Caski, and HepG2. The data set is described as follows: Cellular uptake of FITC-labeled Dot1l peptide in different cell lines. Format: cell-based, human, mouse, rat. As to the method: as §1
For data set [3], the system named is MCF7 and HSC-T6 cells. The data set is described as follows: Comparison of penetration efficiency of different CPPs. It counts as cell-based, human, rat. Particulars: Supplementary Figure S2D. As to the method:
as §1

Data set [4] relates to MCF7 cells. The data set is described as follows: Uptake mechanism: temperature and endocytosis inhibitors. Format: cell-based, human. As to the method: as §1
The uptake mechanism of Dot1l in MCF7 cells was examined through endocytosis inhibitors. Peptide incubation at indicated different temperatures was measured to investigate the influence of temperature on peptide internalization (physical means of inhibition of endocytosis). […] The uptake efficiency was detected using the same protocol as the one shown above.

Data set [5] concerns HSC-T6 cells. The data set is described as follows: MTT cytotoxicity assay. Conditions: HSC-T6, range of peptide concentrations, 24 h and 48 h, n = 3, p > 0.05. It counts as cell-based, rat. As to the method:
(§2) HSC-T6 and MCF7 cells were seeded at a density of 8000 cells/well in 96-well culture plates overnight before incubation. The cells were washed with PBS and were treated with Dot1l or Dot1l/pDNA complexes of different concentrations at the indicated times. After rinsing with PBS, 20 μL of 5 mg/mL MTT in PBS solution were added to 80 μL of serum-free media and incubated for 4 h. After that, the culture medium was discarded and 150 μL of dimethyl sulfoxide (DMSO) were added into each well to dissolve the formazan crystals. The absorbance of DMSO-dissolved solution was read in a Multiskan Spectrum (Thermo Fisher Scientific, Waltham, MA, USA) reader at 490 nm.
Background: Tetrazolium dyes change colour on reduction, which living cells bring about.

Data set [6] relates to MCF7 cells. Briefly: MTT cytotoxicity assay. Particulars: MCF7, range of peptide concentrations, 24 h and 48 h, n = 3, p > 0.05. It counts as cell-based, human. As to the method: as §2
Data set [7] has as its system red blood cells (RBC). Briefly: Hemolysis assay. Format: cell-based. Conditions: 2.5-10 µM, 2 h, absorbance 450 nm, 0.1% Triton X-100 positive control, n = 3, p > 0.05 vs NC. As to the method: To examine the membrane integrity, red blood cells (RBC) were used to conduct hemolytic analysis. After separation of RBCs by centrifugation for 10 min at 500 rpm, RBCs were collected and carefully washed with PBS. A 20% v/v RBC suspension was used for further experiments. In a typical experiment, 25 μL of RBC suspension were added to 225 μL peptide dilutions at different concentrations. Following 2 h of incubation, samples were centrifuged (500 rpm, 5 min) to discard cells and the membrane fragment. Supernatant samples (50-μL aliquots) were transferred to a clear 96-well plate and hemoglobin absorbance was read at 450 nm. Experimental design contains negative controls and positive controls (RBCs treated with 0.1% Triton X-100).

Data set [8] relates to HSC-T6 cells. Briefly: Lactate dehydrogenase leakage assay. Conditions: HSC-T6, 2.5-10 µM, 1 h, 0.1% TritonX-100 positive control, n = 3, p > 0.05 vs NC. It counts as cell-based, rat. As to the method: (§3) Lactate dehydrogenase (LDH) assay was conducted to measure the release of lactate dehydrogenase from damaged cells. Cells were seeded at a density of 1.5 × 10^5 cells/well to 24-well plates for overnight culture and peptides at indicated concentrations were added as described above. After 1 h incubation, 50 μL of cell-free supernatant were collected and added to each well, including controls and cell-free wells filled with 50 μL of LDH assay buffer. Reaction was conducted at room temperature (RT) for 10 min according to the manufacturer’s recommendations and the Optical Density (OD) was read in a Multiskan Spectrum (Thermo Fisher Scientific) plate reader at 570 nm.

The subject of data set [9] is MCF7 cells. The data set is described as follows: Lactate dehydrogenase leakage assay. Format: cell-based, human. Particulars: MCF7, different concentrations, 1 h; Supplementary Figure S4A. As to the method: as §3
The nature of data set [10]: Flow cytometry analysis of cell cycle and cell apoptosis. Format: cell-based. Conditions: 10 μM peptide. As to the method: Cells and Dot1l peptide (10 μM), following the same method as described before, were plated with treatment in a six-well plate format. Cells were then harvested and pelleted in washing steps with PBS three times by centrifuging for 5 min at 1023 rpm. The supernatant was removed, and cells were resuspended in PBS. Cells were then fixed in 70% cold ethanol in PBS for 30 min. After washing three times with PBS, the fixed cells were stained with 0.5 mL PI/RNase A solution or with the Annexin-V/PI Apoptosis Detection Kit (Elabscience, Wuhan, China), following the recommended methods. Quantification of cell cycle states or cell apoptosis was acquired by fluorescence of each sample in BD FACSVerse™ flow cytometer.
In general terms: A flow cytometer gives signals particle by particle.

Ends that are not written are not given here. * marks the point of attachment. FITC = O=C1OC2(c3ccc(O)cc3Oc3cc(O)ccc32)c2ccc(NC(=S)*)cc21; Acp = not defined here

Consider “FITC-(Acp)-KARKKKLNKKGRKMAGRKRGRPKK ({FITC-Acp}-KARKKKLNKKGRKMAGRKRGRPKK; reading uncertain) [Dot1l, FITC-labeled 24-residue arginine-rich cell-penetrating peptide derived from human Dot1l protein]”, for which, in [1], the “Fluorescence signal after trypan blue quenching of cell periphery signal” value is reported as “the fluorescence signal persisted”, the “Intracellular fluorescence signal with 5% DMSO pretreatment” value is reported as “highly increased” and the “Penetration efficiency with longer incubation time” value is given as “not promoted”. For the same substance, the “Penetration in different cell lines after 5% DMSO pretreatment” value in [2] (5% DMSO pretreatment, Supplementary Figure S1C) was “significantly increased”. In addition, the “Penetration in different cell lines” value in [2] (MCF7, B16, HSC-T6, Caski, HepG2, non-DMSO pretreatment condition) is given as “could penetrate into all different cell lines efficiently without apparent cell line specificity”. In [3], the “Penetration efficiency compared with other CPPs” value is “weaker than hPP10, but significantly higher than that of TAT and MT23”. Besides, in data set [4] (MCF7, 5 μM wartmannin (PI-3 kinase blocking agent)), the “Internalization with wartmannin compared with control” value is “no significant differences”. For the same substance, the “Internalization with sodium azide” value in data set [4] (MCF7, 40 µM sodium azide (oxidative phosphorylation inhibitor)) was “not blocked”. In data set [4] (MCF7, 50 μg/mL heparin (HSPG competitor)), the Uptake with heparin result is “could not block Dot1l uptake efficiently”. Besides, the “Internalization with MβCD compared with control” value in data set [4] (MCF7, 5 mM MβCD (lipid raft-mediated endocytosis inhibitor)) is reported as “no significant differences”. Besides, in data set [4] (MCF7, 50 mM ammonium chloride (anti-acidification agent of endocytic vesicles)), the “Internalization with ammonium chloride” value is given as “not blocked”. In addition, the “Internalization with hyperosmotic sucrose compared with control” value in data set [4] (MCF7, 450 mM sucrose (clathrin-dependent endocytosis inhibitor)) is “no significant differences”. In data set [4] (MCF7, means ± SEM (n = 3)), the “Fluorescence intensity at 37 °C compared with 4 °C” value is “no apparent differences” and the “Fluorescence intensity at 37 °C compared with 25 °C” value is given as “significantly higher”. Besides, in data set [4] (MCF7, serum (10% FBS)), the “Internalization in the presence of serum containing incubation medium” value is “blocked”. In addition, the “Inhibition of cell growth (MTT)” value in data set [5] is reported as “no significant inhibition”. In data set [6], the “Inhibition of cell growth (MTT)” value is reported as “no significant inhibition”. In addition, the “Membrane disturbance (hemolysis)” value in data set [7] is listed as “no membrane disturbance”. For the same substance, the “Membrane disturbance (LDH release)” value in [8] is listed as “no membrane disturbance”. In addition, the “Membrane disturbance (LDH release)” value in data set [9] was “no membrane disturbance”. In data set [10] (Annexin-V/PI), the “Cell apoptosis, control vs peptide treatment” value was “did not show significant differences”. In addition, the “Cell cycle, control vs peptide treatment” value in data set [10] (PI/RNase A staining) is recorded as “did not show significant differences”.
